From article PMC2572193, “Structural Analysis of the Interactions Between Paxillin LD Motifs and α-Parvin” (Structure(London, England:1993), 2008)
“Also recorded” adds a separate entry of the source. Where a SMILES comes first, the peptide text is derived from it. Where no end group is shown, it is not given here. The star is where a group is joined. 5FAM = O=C1OC2(c3ccc(O)cc3Oc3cc(O)ccc32)c2ccc(C(=O)*)cc21

Tests used:
[1] = target: T1, α-parvin-CHC (residues 242–372) (Homo sapiens, UniProt Q9NVD7); assay: NMR 1H-15N HSQC titration of 15N-enriched α-parvin-CHC with LD peptides; type: binding; conditions: for KD / affinity range in words: NMR titration, 50 mM sodium phosphate, 100 mM NaCl, pH 6.9, 25°C
T1 construct: α-parvin-CHC (242–372) were subcloned; GST (N, cleaved yes); made in house; host or cells: Escherichia coli BL21
T1 sequence (Q9NVD7 242-372): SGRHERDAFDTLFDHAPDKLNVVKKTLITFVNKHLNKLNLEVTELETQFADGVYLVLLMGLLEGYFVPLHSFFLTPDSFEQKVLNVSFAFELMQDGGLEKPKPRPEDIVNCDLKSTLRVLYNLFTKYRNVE

[2] = Solubility of LD peptide noted in NMR titration; type: physicochemical; conditions: NMR titration buffer, 50 mM sodium phosphate, 100 mM NaCl, pH 6.9
Procedure: Figure S2. Determination of KD-Values for the Interaction of α−Parvin-CHC w ith LD Peptides […]
Titrations were performed with peptides representing the LD1 (A), LD 2(B), LD3 (C), LD4 (D), and […]
δ∆(1H15N) > 0.2 ppm for LD1 and LD2) were fitted globally to a single-site model (see experimental procedures). The errors refer to the fit only and exclude experimental errors. Note […]
respectively. No value could be derived for LD5 due to its low affinity. The KD-value for LD1 represents the weighted average over both antiparallel binding orientations, which exchange fast […]

[3] = target: paxillin LD1 (Homo sapiens) (UniProt P49023); conditions: cited from earlier work
[4] = target: T2, α-parvin-CHC (C-terminal calponin homology domain fragment of human α-parvin, residues 242-372) (human, UniProt Q9NVD7 242-372); assay: fluorescence polarisation; fluorescence anisotropy; 50 nM 5-FAM-labeled LD1 peptide, protein up to 300 μM; 100 mM potassium phosphate, 2 mM DTT, pH 8.0, 25°C; global fit to a single-site model; conditions: both partners purified
T2 construct: α-parvin, human, residues 242-372: the entire C-terminal CH domain and a portion of the inter-CH domain linker; Expressed from pGEX-6P1 (BamHI/EcoRI); also called type-5 CH domain of α-parvin; actopaxin; source: E. coli BL21, GST fusion, purified (glutathione sepharose, 3C-protease cleavage, Superdex 75); 15N-enriched for NMR
T2 sequence (looked up): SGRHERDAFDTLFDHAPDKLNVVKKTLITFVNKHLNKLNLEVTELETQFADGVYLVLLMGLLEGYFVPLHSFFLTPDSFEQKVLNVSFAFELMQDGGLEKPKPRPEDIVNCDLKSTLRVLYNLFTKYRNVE

[5] = target: T3, full-length human α-parvin (1-372) (human, UniProt Q9NVD7 1-372); assay: as above; conditions: both partners purified
T3 construct: α-parvin, human, full length, residues 1-372; Expressed from pGEX-6P1 (EcoRI/EcoRI); also called full-length α-parvin; actopaxin; source: E. coli BL21, GST fusion, purified (glutathione sepharose, 3C-protease cleavage, MonoQ)
T3 sequence (looked up): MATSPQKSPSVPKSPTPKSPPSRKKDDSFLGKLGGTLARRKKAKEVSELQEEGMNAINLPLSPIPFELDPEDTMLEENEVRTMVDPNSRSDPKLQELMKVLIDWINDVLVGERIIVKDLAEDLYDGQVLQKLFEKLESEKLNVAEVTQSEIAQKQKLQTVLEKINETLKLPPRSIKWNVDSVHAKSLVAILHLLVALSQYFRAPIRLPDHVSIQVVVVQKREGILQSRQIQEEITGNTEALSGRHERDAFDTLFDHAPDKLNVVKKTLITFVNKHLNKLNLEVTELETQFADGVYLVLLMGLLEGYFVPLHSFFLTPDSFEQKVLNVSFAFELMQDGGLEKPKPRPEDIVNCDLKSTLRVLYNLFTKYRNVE

[6] = target: T2, α-parvin-CHC (C-terminal calponin …); assay: NMR titration; 1H-15N HSQC of 235 μM 15N-enriched α-parvin-CHC titrated with LD peptide; 50 mM sodium phosphate, 100 mM NaCl, 2 mM DTT, 5% D2O, pH 6.9, 25°C; global fit to a single-site model; conditions: both partners purified

CC[C@H](C)[C@H](NC(=O)[C@H](Cc1c[nH]cn1)NC(=O)[C@H](CO)NC(=O)[C@@H](NC(=O)[C@@H](NC(=O)[C@H](CO)NC(=O)[C@H](CCC(=O)O)NC(=O)[C@H](CC(C)C)NC(=O)[C@H](CC(=O)O)NC(=O)[C@H](C)NC(=O)[C@H](CC(C)C)NC(=O)[C@H](CC(C)C)NC(=O)[C@H](C)NC(=O)[C@H](CC(=O)O)NC(=O)[C@H](CC(C)C)NC(=O)[C@H](CC(=O)O)NC(=O)[C@H](CC(=O)O)NC(=O)[C@@H](N)CCSC)[C@@H](C)O)[C@@H](C)O)C(=O)N[C@@H](CO)C(=O)N[C@@H](CCCCN)C(=O)O [LD1] (H-MDDLDALLADLESTTSHISK-OH)
KD / affinity range in words [1]: micromolar range

CC(C)C[C@H](NC(=O)[C@H](CCC(=O)O)NC(=O)[C@H](CC(C)C)NC(=O)[C@H](CC(C)C)NC(=O)[C@H](CC(C)C)NC(=O)[C@H](CCCNC(=N)N)NC(=O)[C@H](CC(=O)O)NC(=O)[C@H](CC(C)C)NC(=O)[C@H](CCC(=O)O)NC(=O)[C@H](CO)NC(=O)[C@H](CC(C)C)NC(=O)[C@@H](N)CC(N)=O)C(=O)N[C@@H](CC(N)=O)C(=O)N[C@@H](C)C(=O)N[C@H](C(=O)N[C@@H](CCC(N)=O)C(=O)N[C@@H](Cc1c[nH]cn1)C(=O)N[C@@H](CC(N)=O)C(=O)N1CCC[C@H]1C(=O)N1CCC[C@H]1C(=O)O)C(C)C [LD2]
KD / affinity range in words [1]: micromolar range

CC(C)C[C@H](NC(=O)[C@H](CCC(=O)O)NC(=O)[C@H](CC(=O)O)NC(=O)[C@H](CC(C)C)NC(=O)[C@H](CC(C)C)NC(=O)[C@H](CO)NC(=O)[C@H](CCC(=O)O)NC(=O)[C@@H](NC(=O)[C@H](CO)NC(=O)[C@@H]1CCCN1C(=O)[C@H](CCCNC(=N)N)NC(=O)[C@@H](N)C(C)C)C(C)C)C(=O)N[C@@H](CCC(=O)O)C(=O)N[C@@H](CO)C(=O)N[C@@H](CO)C(=O)N[C@H](C(=O)N1CCC[C@H]1C(=O)N[C@@H](CO)C(=O)N1CCC[C@H]1C(=O)N[C@H](C(=O)O)C(C)C)C(C)C [LD3] (H-VRPSVESLLDELESSVPSPV-OH)
KD / affinity range in words [1]: relatively low affinity; also recorded: millimolar range

CSCC[C@H](NC(=O)[C@H](Cc1ccccc1)NC(=O)[C@H](CCCCN)NC(=O)[C@H](Cc1ccccc1)NC(=O)[C@H](CC(=O)O)NC(=O)[C@H](CO)NC(=O)[C@H](CC(C)C)NC(=O)[C@H](CO)NC(=O)[C@H](C)NC(=O)[C@H](CCSC)NC(=O)[C@H](CC(C)C)NC(=O)[C@H](CCC(=O)O)NC(=O)[C@H](CC(=O)O)NC(=O)[C@H](CC(C)C)NC(=O)[C@H](CCC(=O)O)NC(=O)[C@H](CCCNC(=N)N)NC(=O)[C@@H](NC(=O)[C@H](C)N)[C@@H](C)O)C(=O)N[C@@H](C)C(=O)N[C@@H](CCC(N)=O)C(=O)O [LD4] (H-ATRELDELMASLSDFKFMAQ-OH)
KD / affinity range in words [1]: micromolar range | solubility (in words) [2]: poor solubility

PGSQLDSMLGSLQSDLNKLG [LD5]
KD / affinity range in words [1]: low affinity; also recorded: millimolar range; also recorded: mM range ^a

PROXYL-labeled LD1: N-terminally blocked LD1 with N-terminal methionine replaced by cysteine, labeled with 3-maleimido-PROXYL (C(3‑maleimido‑PROXYL)DDLDALLADLESTTSHISK; also: N-terminally blocked (group not given here))
KD-value compared with underivatized LD1 peptide ([1]; data not shown): the same

α-parvin CHC (from UniProt Q9NVD7)
Kd [3]: 1200 µM

B1: 5-FAM-labeled LD1 peptide (paxillin residues 1-20) (peptide)
peptide: MDDLDALLADLESTTSHISK(5FAM)
notes: paxillin, human, LD1 motif, residues 1-20; also called fluorophore-labeled LD1 peptide; source: synthetic peptide, bought: Severn Biotech
Kd [4]: 120 ± 20 µM | Kd [5]: 130 ± 22 µM

B2: paxillin LD4 peptide (human paxillin residues 262-281) (peptide)
peptide: ATRELDELMASLSDFKFMAQ
notes: paxillin, human, LD4 motif, residues 262-281; source: synthetic peptide, bought: Severn Biotech
Kd [6]: 140 ± 30 µM

B3: paxillin LD3 peptide (human paxillin residues 213-232) (peptide)
peptide: VRPSVESLLDELESSVPSPV
notes: paxillin, human, LD3 motif, residues 213-232; source: synthetic peptide, bought: Severn Biotech
Kd [6]: 2300 ± 100 µM

B4: paxillin LD1 peptide (human paxillin residues 1-20) (peptide)
peptide: MDDLDALLADLESTTSHISK
notes: paxillin, human, LD1 motif, residues 1-20; source: synthetic peptide, bought: Severn Biotech
Kd [6]: 96 ± 2 µM

B5: paxillin LD2 peptide (human paxillin residues 141-160) (peptide)
peptide: NLSELDRLLLELNAVQHNPP
notes: paxillin, human, LD2 motif, residues 141-160; source: synthetic peptide, bought: Severn Biotech
Kd [6]: 204 ± 3 µM
